# Experimental data published in patent publication US20100292083A1 (Ablynx, published 2010).
# T1: human IL6R (human, UniProt P08887 20-358, limits assumed)
# T1 construct: Antigen of the Biacore experiments
# T1 sequence (looked up): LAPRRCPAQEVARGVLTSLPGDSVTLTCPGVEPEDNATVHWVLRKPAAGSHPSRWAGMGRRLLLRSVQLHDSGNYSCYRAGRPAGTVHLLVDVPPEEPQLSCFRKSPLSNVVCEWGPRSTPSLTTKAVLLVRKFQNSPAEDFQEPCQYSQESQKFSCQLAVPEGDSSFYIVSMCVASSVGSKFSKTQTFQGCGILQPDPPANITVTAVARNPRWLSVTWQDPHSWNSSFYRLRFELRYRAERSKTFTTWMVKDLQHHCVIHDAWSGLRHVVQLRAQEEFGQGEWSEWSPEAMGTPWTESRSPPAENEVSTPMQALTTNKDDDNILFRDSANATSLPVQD
# Molecular target: T1, human IL6R
# Assay: SPR (Biacore), periplasmic extract
# Protocol: The oligos were dissolved in H₂O and subsequently pooled at a final concentration of 0.4 uM for each oligo. 5 and 1 ul of this mixture was used for assembly PCR in a 50 ul reaction volume. Full-length product was purified using the Qiagen PCR purification kit. The purified PCR product was then digested with SfiI and BsteEII and ligated into the corresponding sites of expression vector pAX51. E. coli TG1 cells were transformed with 2 ul of ligation mixture and plated on LB agar+100 ug/ml ampicillin+2% glucose. Plates were incubated overnight at 37° C. Individual colonies were picked and grown overnight in 2×YT+100 ug/ml ampicillin+2% glucose. Cloned Nanobody genes were amplified directly from these cultures with M13 forward and reverse primers. PCR products were purified and subsequently sequenced. In parallel the same panel of Nanobodies was expressed at 1 ml scale for 4 hours at 37° C. Periplasmic extracts were prepared and without further purification analyzed on Biacore for their ability to bind human IL6R.
row,Binder,koff
1,"32C9PMP1_A1 (VHH, name in Kabat numbering, Humanized 32C9 variant) VHH: EVQLVESGGGLVQAGGSLRLSCAASGFTFSDYDIGWVRQAPGKEREWVSGISSSDGNTYYADSVKGRFTISSDNAKNTLYLQMNSLRPEDTAVYYCAAEPPDSSWYLDGSPEFFKYWGQGTLVTVSS",0.00515 s⁻¹
2,"32C9PMP1_G5 (VHH, name in Kabat numbering, Humanized 32C9 variant) VHH: EVQLVESGGGLVQPGGSLRLSCAASGFTFDDYDIGWFRQAPGKELEGVSGISSSDGNTYYADSVKGRFTISRDNAKNTLYLQMNSLRPEDTAVYYCAAEPPDSSWYLDGSPEFFKYWGQGTLVTVSS",0.00116 s⁻¹
3,"32C9PMP2_A2 (VHH, name in Kabat numbering, Humanized 32C9 variant) VHH: EVQLVESGGGLVQPGGSLRLSCAASGFTFSDYDIGWFRQAPGKGREGVSGISSSDGNTYYADSVKGRFTISRDNAKNTLYLQMNSLKAEDTAVYYCAAEPPDSSWYLDGSPEFFKYWGQGTQVTVSS",0.000192 s⁻¹
4,"32C9PMP1_E6 (VHH, name in Kabat numbering, Humanized 32C9 variant) VHH: EVQLVESGGGLVQAGGSLRLSCAASGFTFSDYDIGWVRQAPGKGREGVSGISSSDGNTYYADSVKGRFTISSDNAKNTVYLQMNSLKAEDTAVYYCAAEPPDSSWYLDGSPEFFKYWGQGTLVTVSS",0.000982 s⁻¹
5,"32C9PMP1_E1 (VHH, name in Kabat numbering, Humanized 32C9 variant) VHH: EVQLVESGGGLVQAGGSLRLSCAASGFTFSDYDIGWFRQAPGKGREGVSGISSSDGNTYYADSVKGRFTISRDNAKNTLYLQMNSLKAEDTAVYYCAAEPPDSSWYLDGSPEFFKYWGQGTLVTVSS",0.000205 s⁻¹
6,"32C9PMP1_E7 (VHH, name in Kabat numbering, Humanized 32C9 variant) VHH: EVQLVESGGGLVQAGGSLRLSCAASGFTFDDYDIGWFRQAPGKGREGVSGISSSDGNTYYADSVKGRFTISSDNAKNTLYLQMNSLKAEDTAVYYCAAEPPDSSWYLDGSPEFFKYWGQGTLVTVSS",0.000187 s⁻¹
7,"32C9PMP1_B5 (VHH, name in Kabat numbering, Humanized 32C9 variant) VHH: EVQLVESGGGLVQPGGSLRLSCAASGFTFSDYDIGWFRQAPGKEREWVSGISSSDGNTYYADSVKGRFTISRDNAKNTLYLQMNSLRPEDTAVYYCAAEPPDSSWYLDGSPEFFKYWGQGTQVTVSS",0.00196 s⁻¹
8,"32C9PMP1_C5 (VHH, name in Kabat numbering, Humanized 32C9 variant) VHH: EVQLVESGGGLVQAGGSLRLSCAASGFTFDDYDIGWVRQAPGKELEGVSGISSSDGNTYYADSVKGRFTISSDNAKNTVYLQMNSLRPEDTAVYYCAAEPPDSSWYLDGSPEFFKYWGQGTLVTVSS",0.0052 s⁻¹
9,"32C9PMP1_F8 (VHH, name in Kabat numbering, Humanized 32C9 variant) VHH: EVQLVESGGGLVQAGGSLRLSCAASGFTFSDYDIGWFRQAPGKEREWVSGISSSDGNTYYADSVKGRFTISSDNAKNTLYLQMNSLKAEDTAVYYCAAEPPDSSWYLDGSPEFFKYWGQGTLVTVSS",0.00189 s⁻¹
10,"32C9PMP1_G11 (VHH, name in Kabat numbering, Humanized 32C9 variant) VHH: EVQLVESGGGLVQAGGSLRLSCAASGFTFSDYDIGWFRQAPGKGREGVSGISSSDGNTYYADSVKGRFTISSDNAKNTVYLQMNSLRPEDTAVYYCAAEPPDSSWYLDGSPEFFKYWGQGTLVTVSS",0.000204 s⁻¹
11,"32C9PMP1_B3 (VHH, name in Kabat numbering, Humanized 32C9 variant) VHH: EVQLVESGGGLVQPGGSLRLSCAASGFTFDDYDIGWVRQAPGKELEGVSGISSSDGNTYYADSVKGRFTISSDNAKNTLYLQMNSLRPEDTAVYYCAAEPPDSSWYLDGSPEFFKYWGQGTLVTVSS",0.00346 s⁻¹
12,"32C9PMP1_H4 (VHH, name in Kabat numbering, Humanized 32C9 variant) VHH: EVQLVESGGGLVQPGGSLRLSCAASGFTFSDYDIGWFRQAPGKGREGVSGISSSDGNTYYADSVKGRFTISSDNAKNTLYLQMNSLKAEDTAVYYCAAEPPDSSWYLDGSPEFFKYWGQGTQVTVSS",0.000187 s⁻¹
13,"32C9PMP1_D4 (VHH, name in Kabat numbering, Humanized 32C9 variant) VHH: EVQLVESGGGLVQAGGSLRLSCAASGFTFSDYDIGWFRQAPGKGREGVSGISSSDGNTYYADSVKGRFTISSDNAKNTLYLQMNSLKAEDTAVYYCAAEPPDSSWYLDGSPEFFKYWGQGTQVTVSS",0.000196 s⁻¹

# The remaining lines, values ahead:
row,koff,Binder
1,0.000792 s⁻¹,"32C9PMP2_A7 (VHH, name in Kabat numbering, Humanized 32C9 variant) VHH: EVQLVESGGGLVQAGGSLRLSCAASGFTFSDYDIGWVRQAPGKGREGVSGISSSDGNTYYADSVKGRFTISRDNAKNTLYLQMNSLKAEDTAVYYCAAEPPDSSWYLDGSPEFFKYWGQGTLVTVSS"
2,0.0029 s⁻¹,"32C9PMP2_A12 (VHH, name in Kabat numbering, Humanized 32C9 variant) VHH: EVQLVESGGGLVQAGGSLRLSCAASGFTFDDYDIGWFRQAPGKELEGVSGISSSDGNTYYADSVKGRFTISSDNAKNTVYLQMNSLKAEDTAVYYCAAEPPDSSWYLDGSPEFFKYWGQGTQVTVSS"
3,0.000308 s⁻¹,"32C9PMP2_B3 (VHH, name in Kabat numbering, Humanized 32C9 variant) VHH: EVQLVESGGGLVQAGGSLRLSCAASGFTFSDYDIGWFRQAPGKEREGVSGISSSDGNTYYADSVKGRFTISRDNAKNTVYLQMNSLKAEDTAVYYCAAEPPDSSWYLDGSPEFFKYWGQGTLVTVSS"

# Molecular target: T1, human IL6R
# Assay: SPR (Biacore), periplasmic extract
# Remark: another data set of the same source
row,binding result,Binder
1,no binding,"32C9PMP2_F5 (VHH, name in Kabat numbering, Humanized 32C9 variant) VHH: EVQLVESGGGLVQPGGSLRLSCAASGFTFDDYDIGWFRQAPGKEREWVSGISSSDGNTYYADSVKGRFTISSDNAKNTLYLQMNSLKAEDTAVYYCAREPPDSSWYLDGSPEFFKYWGQGTLVTVSS"
2,no binding,"32C9PMP2_E6 (VHH, name in Kabat numbering, Humanized 32C9 variant) VHH: EVQLVESGGGLVQPGGSLRLSCAASGFTFSDYDIGWFRQAPGKEREGVSGISSSDGNTYYADSVKGRFTISRDNAKNTVYLQMNSLKAEDTAVYYCAREPPDSSWYLDGSPEFFKYWGQGTLVTVSS"
3,no binding,"32C9PMP2_D8 (VHH, name in Kabat numbering, Humanized 32C9 variant) VHH: EVQLVESGGGLVQPGGSLRLSCAASGFTFSDYDIGWFRQAPGKEREGVSGISSSDGNTYYADSVKGRFTISRDNAKNTVYLQMNSLKAEDTAVYYCAREPPDSSWYLDGSPEFFKYWGQGTQVTVSS"
4,no binding,"32C9PMP2_F2 (VHH, name in Kabat numbering, Humanized 32C9 variant) VHH: EVQLVESGGGLVQAGGSLRLSCAASGFTFDDYDIGWVRQAPGKEREWVSGISSSDGNTYYADSVKGRFTISSDNAKNTLYLQMNSLRPEDTAVYYCAREPPDSSWYLDGSPEFFKYWGQGTLVTVSS"
5,no binding,"32C9PMP2_D9 (VHH, name in Kabat numbering, Humanized 32C9 variant) VHH: EVQLVESGGGLVQPGGSLRLSCAASGFTFSDYDIGWFRQAPGKGREGVSGISSSDGNTYYADSVKGRFTISSDNAKNTVYLQMNSLRPEDTAVYYCAREPPDSSWYLDGSPEFFKYWGQGTLVTVSS"
6,no binding,"32C9PMP2_D5 (VHH, name in Kabat numbering, Humanized 32C9 variant) VHH: EVQLVESGGGLVQPGGSLRLSCAASGFTFDDYDIGWVRQAPGKELEGVSGISSSDGNTYYADSVKGRFTISRDNAKNTVYLQMNSLKAEDTAVYYCAREPPDSSWYLDGSPEFFKYWGQGTLVTVSS"
7,no binding,"32C9PMP2_C12 (VHH, name in Kabat numbering, Humanized 32C9 variant) VHH: EVQLVESGGGLVQAGGSLRLSCAASGFTFDDYDIGWVRQAPGKEREWVSGISSSDGNTYYADSVKGRFTISSDNAKNTLYLQMNSLKAEDTAVYYCAREPPDSSWYLDGSPEFFKYWGQGTLVTVSS"
8,no binding,"32C9PMP2_E7 (VHH, name in Kabat numbering, Humanized 32C9 variant) VHH: EVQLVESGGGLVQAGGSLRLSCAASGFTFSDYDIGWFRQAPGKEREWVSGISSSDGNTYYADSVKGRFTISRDNAKNTLYLQMNSLRPEDTAVYYCAREPPDSSWYLDGSPEFFKYWGQGTLVTVSS"
